Measured values published in patent US20150064714A1, “Polypeptides containing a modified fragment of the peptide IF1” (LIFESEARCH, priority 2013, published 2015).
One block for each molecule: values may come before it. No end group written: not given here. *: point of attachment. MTSL = spin label, CC1(C)C=C(CS*)C(C)(C)N1[O]

Columns and labels:
[1] = tested on: F1-ATPase or SMP (F0F1-ATPase); assay: Measurement of the affinity of a labelled polypeptide for the ATPase (kinetics of inhibition of ATP hydrolysis, NADH disappearance at 340 nm); assay type: biochemical; settings: kinetic results; 25° C., pH 6.5; polypeptide 15 nM to 2 μM
Method: The hydrolysis of ATP by F1-ATPase or SMP (F0F1-ATPase) was measured according to the reaction illustrated below by following the disappearance of NADH over time at 340 nm.
This reaction is carried out in a thermostatically controlled vessel (25° C.) in which the reaction medium pH 6.5 (50 mM MES, 20 mM KCl, 1 mM MgCl2, 0.4 mM NADH, 1 mM PEP, 20 units/mL pyruvate kinase and 50 unit/mL lactate dehydrogenase) is stirred. In the case of measurement of hydrolysis of ATP by the SMPs, the vessel also contains 3 μM antimycin and 3 μM FCCP.
After recording for 2 to 4 minutes, a labelled polypeptide of the invention is injected into the measurement vessel at a concentration range of 15 nM to 2 μM and the ATPase activity decreases. The recordings are analysed and adjusted with a decreasing monoexponential function (equation 1 shown below) corresponding to the decline in the ATPase activity.
By plotting the values of kapp obtained as a function of the concentration of IF1, the formation rate constant (kon) and dissociation rate constant (koff) of the inhibited complex F1ATPase/IF1 are determined according to the following equation: kapp=kon[I]+koff
The relationship between the ratio V(I)/V(0) and the concentration of labelled polypeptide of the invention are linked according to the following equation:
V(I)/V(0)=Vr+(1−Vr)/(1+[I]/k1),
in which Vr is the fraction of V0 insensitive to IF1 inhibition.

ATPase = ATPase (Homo sapiens, UniProt P06576+P25705); settings: fragment of IF1 of less than 34 amino acids in a fusion protein; cited from earlier work
F1-ATPase = F1-ATPase (Bos taurus, UniProt P00829+P19483); settings: point mutations of bovine IF1; cited from earlier work

affinity for ATP synthase compared to that of natural IF1 [1]: better affinity for ATP synthase
Molecule: SEQ ID NO: 25: cysteine-containing peptide: cysteine inserted into the median region of SEQ ID NO: 9, for labelling with the spin label MTSL (SEDSFVKRARATEDWFVRQREKEC(MTSL)QLRHLKEQLEKQRKK)

Molecule: fragment constituted by amino acid 14 to amino acid 46 of IF1: fragment of the protein IF1 in a fusion protein of US 2004/0072739 (AVRDAGGAFGKREQAEEERYFRARAKEQLAALK; UniProt P01096 39-71, looked up, fragment)
ATPase inhibiting activity (ATPase): better ATPase inhibiting activity

B1: Y33W: modified bovine IF1 containing the point mutation Y33W (Bason et al.) (protein, UniProt P01096 26-109, looked up, variant Y33W)
ATPase inhibitor, …: GSESGDNVRSSAGAVRDAGGAFGKREQAEEERWFRARAKEQLAALKKHHENEISHHAKEIERLQKEIERHKQSIKKLKQSEDDD
affinity for F1-ATPase compared to the natural bovine IF1 (F1-ATPase): better affinity
